Measured values: the supplement of paper PMC10057847, “Precision engineering of biological function with large-scale measurements and machine learning” (PLOS ONE, 2023)
± gives the uncertainty stated by the source.

B1: library; the commonest letter at each place (parent)
chain: MKPVTLYDVAEYAGVSYQTVSRVVNQASHVSAKTREKVEAAMAELNYIPNRVAQQLAGKQSLLIGVATSSLALHAPSQIVAAIKSRADQLGASVVVSMVERSGVEACKAAVHNLLAQRVSGLIINYPLDDQDAIAVEAACTNVPALFLDVSDQTPINSIIFSHEDGTRLGVEHLVALGHQQIALLAGPLSSVSARLRLAGWHKYLTRNQIQPIAEREGDWSAMSGFQQTMQMLNEGIVPTAMLVANDQMALGAMRAITESGLRVGADISVVGYDDTEDSSCYIPPLTTIKQDFRLLGQTSVDRLLQLSQGQAVKGNQLLPVSLVKRKTTLAPNTQTASPRALADSLMQLARQVSRLESGQ

Experiments:
Settings in all cases: with IPTG
IPTG [1] = variants of: B1
Experimental: (§1)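 LacI variants on the pVER plasmid regulate eYFP behind lacO in E. coli MG1655Δlac, grown in rich M9 at 37 °C with a 2-fold IPTG dilution series. After two 160-min growth steps, YFP is read by flow cytometry and calibrated to MEF. Bayesian MCMC fits of the Hill equation give G0, G∞, EC50 and n (posterior mean ± SD).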

IPTG [2] = variants of: B1; assay: Hill coefficient n (dimensionless); higher = steeper dose response
Experimental: as §1

IPTG [3] = variants of: B1; assay: basal output G0 (YFP, no IPTG) (log10 MEF); higher = higher reporter expression without inducer
Experimental: as §1

IPTG [4] = variants of: B1; assay: saturating output G-infinity (YFP) (log10 MEF); higher = higher reporter expression at saturating IPTG
Experimental: as §1

MKPVTLYDVAEYAGVSYQTVSRVVNQASHVSAKTREKVEAAMAELNYIPNRVAQQLAGKQSLLIGVATTSLALHAPSQILAAIKSRADQLGASVVVSMVERSGVEACKAAVHNLLAQRVSGLIINYPLDDQDAIAVEAACTNVPALFLDVSDQTPINSIIFSHEDGTRLGVEHLVALGHQQIALLAGPLSSVSARLRLAGWHKYLTRNQIQPIAEREGDWSAMSGFQQTMQMLNEGIVPTAMLVANDQMALGAMRAITESGLRVGADISVVGYDDTEDSSCYIPPLTTIKQDFRLLGQTSVDRLLQLSQGQAVKGNQLLPVSLVKRKTTLAPNTQTASPRALADSLMQLARQVSRLESGQ [S69T V80L]
EC50 for IPTG (log10 µmol/L) (IPTG [1]): 1.75 ± 0.025 | Hill coefficient n (IPTG [2]): 1.38 ± 0.066 | basal output G0 (log10) (IPTG [3]): 1.09 ± 0.68 | saturating output G-infinity (log10) (IPTG [4]): 4.182 ± 0.0044

MKPVTLYDVAEYAGVSYQTVSRVVNQASHVSAKTREKVEAAMAELNYIPNRVAQQLAGKQSLLIGVATSSLALHAPSQIVAAIKSRADQLGASVVVTMVERSGVEACKAAVHNLLAQRVSGLIINYPLDDQDAIAVEAACTNVPALFLDVSDQTPINSIIFSHEDGTRLGVEHLVALGHQQIALLAGPLSSVSARLRLACWHKYLTRNQIQPIAEREGDWSAMSGFQQTMQMLNEGIVPTAMLVANDQMALGAMRAITESGLRVGADISVVGYDDTEDSSCYIPPLTTIKQDFRLLGQTSVDRLLQLSQGQAVKGNQLLPVSLVKRKTTLAPNTQTASPRALADSLMQLARQVSRLESGQ [S97T G200C]
EC50 for IPTG (log10 µmol/L) (IPTG [1]): 2.162 ± 0.012 | Hill coefficient n (IPTG [2]): 1.65 ± 0.041 | basal output G0 (log10) (IPTG [3]): 2.68 ± 0.043 | saturating output G-infinity (log10) (IPTG [4]): 4.442 ± 0.0057

MKPVTLYDVAEYAGVSYQTVSRVVNQASHVSAKTREKVEAAMAELNYIPNRVAQQLAGKQSLLIGVATSRLALHAPSQIVAAIKSRADQLGASVVVSMVERSGVEACKAAVHNLLAQRVSGLIINYPLDDQDAIAEEAACTNVPALFLDVSDQTPINSIIFSHEDGTRLGVEHLVALGHQQIALLAGPLSSVSARLRLAGWHKYLTRNQIQPIAEREGDWSAMSGFQQTMQMLNEGIVPTAMLVANDQMALGAMRAITESGLRVGADISVVGYDDTEDSSCYIPPLTTIKQDFRLLGQTSVDRLLQLSQGQAVKGNQLLPVSLVKRKTTLAPNTQTASPRALADSLMQLARQVSRLESGQ [S70R V136E]
EC50 for IPTG (log10 µmol/L) (IPTG [1]): 1.841 ± 0.017 | Hill coefficient n (IPTG [2]): 1.69 ± 0.085 | basal output G0 (log10) (IPTG [3]): 4.55 ± 0.0061 | saturating output G-infinity (log10) (IPTG [4]): 3.806 ± 0.01

MKPVTLYDVAEYAGVSYQTVSRVVNQASHVSAKTREKVEAAMAELNYIPNRVAQQLAGKQSLLIGVATSSLALHAPSQIVAAIKSRADQLGASVVVSMVERSGVEACKAAVHNLLAQRVSGLIINYPLDDQDAIAEEAACTNVPALFLDVSDQTPINSIIVSHEDGTRLGVEHLVALGHQQIALLAGPLSSVSARLRLAGWHKYLTRNQIQPIAEREGDWSAMSGFQQTMQMLNEGIVPTAMLVANDQMALGAMRAITESGLRVGADISVVGYDDTEDSSCYIPPLTTIKQDFRLLGQTSVDRLLQLSQGQAVKGNQLLPVSLVKRKTTLAPNTQTASPRALADSLMQLARQVSRLESGQ [V136E F161V]
EC50 for IPTG (log10 µmol/L) (IPTG [1]): 3.713 ± 0.031 | Hill coefficient n (IPTG [2]): 1.84 ± 0.2 | basal output G0 (log10) (IPTG [3]): 4.516 ± 0.0031 | saturating output G-infinity (log10) (IPTG [4]): 4.229 ± 0.011

MKPVTLYDVAEYAGVSYQTVSRVVNQASHVSAKTREKVEAAMAELNYIPNRVAQQLAGKQSLLIGVATSSLALHAPSQIVAAIKSRADQLGASVVVSMVERSGVEACKAAVHNLLAQRVSGLIINYPLDDQDAIAVEAACTNVPALFLDVSDQTPINSIIFSHEDGTRLGVEHLVALGHQQIALLAGPLSSVSARLRLAGWHKYLTRNQIQPIAEREGDWSAMSGFQQTMQMLNEGIVPTAMLVANDQMALGAMRAITESGLRVGADISVVGYDDTEDSSCYIPPLTTIKQDFRLLGQTSVDRLLQLSQGQAVKGNLLLPVSLVKRKTTLAPNTQTASPRALADSLMQLARQVSRLESGQ [Q317L]
EC50 for IPTG (log10 µmol/L) (IPTG [1]): 2.051 ± 0.0097 | Hill coefficient n (IPTG [2]): 1.66 ± 0.041 | basal output G0 (log10) (IPTG [3]): 2.08 ± 0.5 | saturating output G-infinity (log10) (IPTG [4]): 4.4477 ± 0.0044
